In US20090297524A1 (DOMANTIS, published 2009):

T1: Recombinant human CD40L (human, UniProt P29965 108-261, limits assumed)
T1 construct: also called CD40 ligand
T1 sequence (looked up): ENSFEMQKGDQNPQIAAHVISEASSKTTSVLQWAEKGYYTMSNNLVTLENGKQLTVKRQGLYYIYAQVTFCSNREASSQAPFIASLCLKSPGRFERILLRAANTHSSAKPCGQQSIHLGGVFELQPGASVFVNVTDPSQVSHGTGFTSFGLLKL

B1: DOM.184 (other)
VH: EVQLLESGGGLVQPGGSLRLSCAASGFTFSDYEMMWVRQAPGKGLEWVSSITSHGGSTYYADSVKGRFTISRDNSKNTLYLQMNSLRAEDTAVYYCAKPDKDFDYWGQGTLVTVSS
notes: VH dAb
B2: DOM.186 (other)
VH: EVQLLESGGGLVQPGGSLRLSCAASGLTFGRYEMAWVRQAPGKGLEWVSSIDSDGWVTYYADSVKGRFTISRDNSKNTLYLQMNSLRAEDTAVYYCAQPDSLFDYWGQGTLVTVSS
notes: VH dAb
B3: DOM.190 (other)
VH: EVQLLESGGGLVQPGGSLRLSCAASGFTFSMYDMHWVRQAPGKGLEWVSTILSDGTDTYYADSVKGRFTISRDNSKNTLYLQMNSLRAEDTAVYYCAKYGAMFDYWGQGTLVTVSS
notes: VH dAb
B4: DOM.196 (other)
VH: EVQLLESGGGLVQPGGSLRLSCAASGFTFSGYEMAWVRQAPGKGLEWVSSITDMGDSTYYADSVKGRFTISRDNSKNTLYLQMNSLRAEDTAVYYCAKPGTAFDYWGPGTLVTVSS
notes: VH dAb
B5: DOM.205 (other)
VH: EVQLLESGGGLVQPGGSLRLSCAASGFTFASYQMAWVRQAPGKGLEWVSGITSGGLSTYYADSVKGRFTISRDNSKNTLYLQMNSLRAEDTAVYYCAKPGRGFDYWGQGTLVTVSS
notes: VH dAb
B6: DOM.206 (other)
VH: EVQLLESGGGLVQPGGSLRLSCAASGFTFASYEMTWVRQAPGKGLEWVSGISSDGLSTYYADSVKGRFTISRDNSKNTLYLQMNSLRAEDTAVYYCAKPGVLFDYWGQGTLVTVSS
notes: VH dAb
B7: DOM.208 (other)
VH: EVQLLESGGGLVQPGGSLRLSCAASGFTFTEYEMSWVRQAPGKGLEWVSSIDNVGSSTYYADSVKGRFTISRDNSKNTLYLQMNSLRAEDTAVYYCAKPGKLFDYWGQGTLVTVSS
notes: VH dAb
B8: DOM.99 (other)
VH: EVQLLESGGGLVQPGGSLRLSCAASGFTFEDYAMSWVRQAPGKGLEWVSTITPGGFWTYYADSVKGRFTISRDNSKNTLYLQMNSLRAEDTAVYYCAKTSSGELQLVEDFDYWGQGTLVTVSS
notes: VH dAb
B9: DOM.100 (other)
VL: DIQMTQSPSSLSASVGDRVTITCRASQNIKHSLRWYQQKPGKAPRLLIYHRSQLQSGVPSRFSGSGSGTDFTLTISSLQPEDFATYYCQQVRHRPYTFGQGTKVEIKR
notes: Vk dAb
B10: DOM.102 (other)
VL: DIQMTQSPSSLSASVGDRVTITCRASQHIGHHLRWYQQKPGKAPKLLIYHRSHLQSGVPSRFSGSGSGTDFTLTISSLQPEDSATYYCQQWDRPPYTFGQGTKVEIKR
notes: Vk dAb
B11: DOM8.111 (other)
VH: EVQLLESGGGLVQPGGSLRLSCAASGFTFERYPMTWVRQAPGKGLEWVSTIHGSGSATYYADSVKGRFTISRDNSKNTLYLQMNSLRAEDTAVYYCAKGPYTSRHNSLGHFDYWGQGTLVTVSS
notes: VH dAb
B12: DOM.112 (other)
VH: EVQLLESGGGLVQPGGSLRLSCAASGFTFMDYPMGWVRQAPGKGLEWVSSIGPVGMSTYYADSVKGRFTISRDNSKNTLYLQMNSLRAEDTAVYYCAKYGGTSGRHNTKFDYWGQGTLVTVSS
notes: VH dAb
B13: DOM.113 (other)
VH: EVQLLESGGGLVQPGGSLRLSCAASGFTFTEYPMSWVRQAPGKGLEWVSVISPLGFTTYYADSVKGRFTISRDNSKNTLYLQMNSLRAEDTAVYYCAKWTGGSGILNSSFDYWGQGTLVTVSS
notes: VH dAb
B14: DOM.114 (other)
VH: EVQLLESGGGLVQPGGSLRLSCAASGFRVSNYDLTWVRQAPGKGLEWVSTISATNGSTYYADSVKGRFTISRDNSKNTLYLQMNSLRAEDTAVYYCAAVTWWLLRHNDNLGFWGQGTLVTVSS
B15: DOM.115 (other)
VH: EVQLLESGGGLVQPGGSLRLSCAASGFSISYKNMAWVRQAPGKGLEWVSAIKAANGSTYYADSVKGRFTISRDNSKNTLYLQMNSLRAEDTAVYYCATGSQKKRTYTFDFWGQGTLVTVSS
B16: DOM.120 (other)
VH: EVQLLESGGGLVQPGGSLRLSCAASGFTFRSYTMGWVRQAPGKGLEWVSSINPMGYQTYYADSVKGRFTISRDNSKNTLYLQMNSLRAEDTAVYYCAKHGVGKGTKPHNFDYWGQGTLVTVSS
notes: VH dAb
B17: DOM.121 (other)
VH: EVQLLESGGGLVQPGGSLRLSCAASGFTFELYRMSWVRQAPGKGLEWVSEISGSGFPTYYADSVKGRFTISRDNSKNTLYLQMNSLRAEDTAVYYCAKSLHDKTQHHQEFDYWGQGTLVTVSS
notes: VH dAb
B18: DOM.123 (other)
VH: EVQLLESGGGLVQPGGSLRLSCAASGFTFIEYPMRWVRQAPGKGLEWVSLISPSGVFTYYADSVKGRFTISRDNSKNTLYLQMNSLRAEDTAVYYCAKGDESSTFDYWGQGTLVTVSS
notes: VH dAb
B19: DOM.124 (other)
VH: EVQLLESGGGLVQPGGSLRLSCAASGFTFKRYDMDWVRQAPGKGLEWVSTIGSSGYPTYYADSVKGRFTISRDNSKNTLYLQMNSLRAEDTAVYYCAERMPGYFPGFARQFDYWGQGTLVTVSS
notes: VH dAb
B20: DOM.125 (other)
VH: EVQLLESGGGLVQPGGSLRLSCAASGFTFWRYAMGWVRQAPGKGLEWVSTINDEGRETYYADSVKGRFTISRDNSKNTLYLQMNSLRAEDTAVYYCAKKRVSSSVNAPYEFDYWGQGTLVTVSS
notes: VH dAb
B21: DOM.126 (other)
VH: EVQLLESGGGLVQPGGSLRLSCAASGFTFANYSMSWVRQAPGKGLEWVSSIDRLGTHTYYADSVKGRFTISRDNSKNTLYLQMNSLRAEDTAVYYCAKVLADLIAGHAEFDYWGQGTLVTVSS
notes: VH dAb
B22: DOM.127 (other)
VH: EVQLLESGGGLVQPGGSLRLSCAASGFTFPSYDMAWVRQAPGKGLEWVSGISRSGSMTYYADSVKGRFTISRDNSKNTLYLQMNSLRAEDTAVYYCAKGVDAHVYYMEPFFDYWGQGTLVTVSS
notes: VH dAb
B23: DOM.132 (other)
VH: EVQLLESGGGLVQPGGSLRLSCAASGFTFADYDMAWVRQAPGKGLEWVSGIVDDGLMTYYADSVKGRFTISRDNSKNTLYLQMNSLRAEDTAVYYCAKPDVAFDYWGQGTLVTVSN
notes: VH dAb
B24: DOM.133 (other)
VH: EVQLLESGGGLVQPGGSLRLSCAASGFTFIGYAMAWVRQAPGKGLEWVSSIGPLGATTYYADSVKGRFTISRDNSKNTLYLQMNSLRAEDTAVYYCAKLPAGTSSHSVDFDYWGQGTLVTVSS
notes: VH dAb
B25: DOM.135 (other)
VH: EVQLLESGGGLVQPGGSLRLSCAASGFTFRRYVMGWVRQAPGKGLEWVSWIEADGRTTYYADSVKGRFTISRDNSKNTLYLQMNSLRAEDTAVYYCAKGLTDQHVIEFDYWGQGTLVTVSS
notes: VH dAb
B26: DOM.136 (other)
VH: EVQLLESGGGLVQPGGSLRLSCAASGFTFDGYRMGWVRQAPGKGLEWVSSIAPDGNYTYYADSVKGRFTISRDNSKNTLYLQMNSLRAEDTAVYYCAKFWGMQFDYWGQGTLVTVSS
notes: VH dAb
B27: DOM.137 (other)
VH: EVQLLESGGGLVQPGGSLRLSCAASGFTFASYPMGWVRQAPGKGLEWVSSIGPIGFTTYYADSVKGRFTISRDNSKNTLYLQMNSLRAEDTAVYYCAEMKSPYKPQFDYWGQGTLVTVSS
notes: VH dAb
B28: DOM.138 (other)
VH: EVQLLESGGGLVQPGGSLRLSCAASGFTFLAYWMVWVRQAPGKGLEWVSSISPSGTHTYYADSVKGRFTISRDNSKNTLYLQMNSLRVEDTAVYYCAKYTEPGLGSFDYWGQGTLVTVSS
notes: VH dAb
B29: DOM.139 (other)
VH: EVQLLESGGGLVQPGGSLRLSCAASGFTFSNYEMGWVRQAPGKGLEWVSVISEVGSLTYYADSVKGRFTISRDNSKNTLYLQMNSLRAEDTAVYYCAKPHDSSIGFDYWGQGTLVTVSS
notes: VH dAb
B30: DOM.141 (other)
VL: DIQMTQSPSSLSASVGDRVTITCRASQWIGDTLTWYQQKLGKAPKLLIYGGSELQSGVPPRFSGSGSGTDFTLTISSLQPEDFATYYCQQCISSPCTFGQGTKVEIKR
notes: Vk dAb
B31: DOM.145 (other)
VL: DIQMTQSPSSLSASVGDRVTITCRASQTIYTSLSWYQQKPGKAPKLLIHYGSVLQSGVPSRFSGSGSGTDFTLTISSLQPEDSATYYCQQVHQAPTTFGQGTKVEIKR
notes: Vk dAb
B32: DOM.146 (other)
VL: DIRMTQSPSSLSASVGDRVTITCRASQWIGDSLAWYQQKPGKAPKLLIYGISELQSGVPSRFSGSGSGTDFTLTISSLQPEDSATYYCQLSSSMPHTFGQGTKVEIKR
notes: Vk dAb
B33: DOM.149 (other)
VL: DIQMTQSPSSLSASVGDRVTITCRASQWIGRQLVWYQQKPGKAPKLLIYGATELQSGVPSRFSGSGSGTDFTLTISSLQPEDFATYYCQQQSKGPLTFGHGTKVEIKR
notes: Vk dAb

These binders were tested against T1, Recombinant human CD40L (assay: CD40L/CD40-Fc receptor binding assay;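 note: plate assay with coated human CD40-Fc, bound ligand detected via HRP anti-biotin antibody and TMB, OD at 450 nm, lower signal indicates stronger inhibition by dAb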).
Method: A 96 well Nunc Maxisorp assay plate was coated overnight at 4° C. with 100 μl per well of recombinant human CD40/Fc (R&D Systems) at 0.5 μg/ml in carbonate buffer. The plate was washed 3 times with 300 μl of 0.05% Tween/PBS and 3 times with 300 μl of PBS using a Tecan plate washer. The wells were blocked using 200 μl of PBS containing 2% (w/v) BSA and incubated for a minimum of 1 h at room temperature. The wells were washed as above, then 50 μl of purified dAb protein (or unpurified supernatant containing dAb from a micro-culture expression) was added to each well.
The plate was washed as described above, then 100 μl HRP conjugated anti-biotin antibody (1:5000 dilution in diluent) added to each well and the plate incubated for 1 hr at room temperature. The plate was washed again as described above using a Tecan plate washer and the assay developed using 100 μl of SureBlue 1-Component TMB MicroWell Peroxidase solution (the plate was left at room temperature for up to 20 min). The reaction was stopped by the addition of 100 μl M hydrochloric acid. The OD₄₅₀ₙₘ of the plate was assayed within 30 minutes of acid addition. The OD₄₅₀ₙₘ is proportional to the amount of bound streptavidin-HRP conjugate, therefore the greater the degree of dAb inhibition the lower the OD₄₅₀ₙₘ of the resulting signal.

Binding result, binds:
B1, B2, B3, B4, B5, B6, B7, B8, B9, B10, B11, B12, B13, B14, B15, B16, B17, B18, B19, B20, B21, B22, B23, B24, B25, B26, B27, B28, B29, B30, B31, B32, B33
